Source: the supplement of paper PMC9112550, “Optimization of the antimicrobial peptide Bac7 by deep mutational scanning” (BMC Biology, 2022)

tested on: Escherichia coli TOP10; assay: shrunken log2 fold change of peptide-encoding DNA abundance (4.5 h post-induction vs induction); higher = less antimicrobial activity (less host growth inhibition); details: time post-induction: 4.5 h; library: site-saturation at positions 5, 18, 19, 20
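Further: peptides expressed intracellularly from a pBAD plasmid library in pooled LB shake-flask culture, induced with 0.3% L-arabinose, DNA abundance read by NGS, three biological replicates, DESeq2 with apeglm shrinkage.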

Row | Sequence | shrunken log2 fold change
1 | RRIRPRPPRLPRPRPRPHDHPRP | 0.0287
2 | RRIRPRPPRLPRPRPRPHDNPRP | -0.347
3 | RRIRPRPPRLPRPRPRPHECPRP | -1.31
4 | RRIRPRPPRLPRPRPRPHFLPRP | -0.168
5 | RRIRPRPPRLPRPRPRPHFYPRP | -0.217
6 | RRIRPRPPRLPRPRPRPHIDPRP | -0.215
7 | RRIRPRPPRLPRPRPRPHIFPRP | -0.0487
8 | RRIRPRPPRLPRPRPRPHIIPRP | -0.19
9 | RRIRPRPPRLPRPRPRPHINPRP | -1.16
10 | RRIRPRPPRLPRPRPRPHKPPRP | -0.0376
11 | RRIRPRPPRLPRPRPRPHLDPRP | 0.158
12 | RRIRPRPPRLPRPRPRPHLMPRP | -0.0526
13 | RRIRPRPPRLPRPRPRPHLPPRP | -0.126
14 | RRIRPRPPRLPRPRPRPHLVPRP | -0.034
15 | RRIRPRPPRLPRPRPRPHNWPRP | 0.0255
16 | RRIRPRPPRLPRPRPRPHPAPRP | 0.217
17 | RRIRPRPPRLPRPRPRPHRYPRP | -0.136
18 | RRIRPRPPRLPRPRPRPHTEPRP | 0.0462
19 | RRIRPRPPRLPRPRPRPHVCPRP | 0.171
20 | RRIRPRPPRLPRPRPRPHVNPRP | -0.38
21 | RRIRPRPPRLPRPRPRPHWPPRP | 0.0791
22 | RRIRPRPPRLPRPRPRPHWSPRP | 0.26

Row | Sequence | shrunken log2 fold change
23 | RRIRPRPPRLPRPRPRPHWTPRP | -0.119
24 | RRIRPRPPRLPRPRPRPHWYPRP | -0.165
25 | RRIRPRPPRLPRPRPRPHYAPRP | -0.15
26 | RRIRPRPPRLPRPRPRPHYIPRP | -0.586
27 | RRIRPRPPRLPRPRPRPICCPRP | -0.139
28 | RRIRPRPPRLPRPRPRPICPPRP | -0.17
29 | RRIRPRPPRLPRPRPRPICTPRP | 0.0424
30 | RRIRPRPPRLPRPRPRPICYPRP | -0.407
31 | RRIRPRPPRLPRPRPRPIEIPRP | -0.0794
32 | RRIRPRPPRLPRPRPRPIEPPRP | 0.109
33 | RRIRPRPPRLPRPRPRPIESPRP | -0.252
34 | RRIRPRPPRLPRPRPRPIFAPRP | 0.33
35 | RRIRPRPPRLPRPRPRPIFFPRP | 0.211
36 | RRIRPRPPRLPRPRPRPIGEPRP | -0.0647
37 | RRIRPRPPRLPRPRPRPIHDPRP | -0.0217
38 | RRIRPRPPRLPRPRPRPILKPRP | -0.14
39 | RRIRPRPPRLPRPRPRPILRPRP | -0.0705
40 | RRIRPRPPRLPRPRPRPILVPRP | -0.178
41 | RRIRPRPPRLPRPRPRPINYPRP | -0.402
42 | RRIRPRPPRLPRPRPRPIPDPRP | 0.0469
43 | RRIRPRPPRLPRPRPRPIPYPRP | -0.384
44 | RRIRPRPPRLPRPRPRPIQQPRP | 0.000308

Row | Sequence | shrunken log2 fold change
45 | RRIRPRPPRLPRPRPRPIRFPRP | -0.119
46 | RRIRPRPPRLPRPRPRPIRHPRP | -0.146
47 | RRIRPRPPRLPRPRPRPIRMPRP | -0.039
48 | RRIRPRPPRLPRPRPRPISTPRP | -0.324
49 | RRIRPRPPRLPRPRPRPITPPRP | 0.0216
50 | RRIRPRPPRLPRPRPRPIVDPRP | 0.0804
51 | RRIRPRPPRLPRPRPRPIWCPRP | 0.0267
52 | RRIRPRPPRLPRPRPRPIWHPRP | -0.0776
53 | RRIRPRPPRLPRPRPRPIWQPRP | 0.0572
54 | RRIRPRPPRLPRPRPRPKAKPRP | 0.131
55 | RRIRPRPPRLPRPRPRPKDCPRP | 0.107
56 | RRIRPRPPRLPRPRPRPKEHPRP | -0.202
57 | RRIRPRPPRLPRPRPRPKEMPRP | -0.106
58 | RRIRPRPPRLPRPRPRPKFEPRP | 0.319
59 | RRIRPRPPRLPRPRPRPKHGPRP | 0.127
60 | RRIRPRPPRLPRPRPRPKIQPRP | 0.0394
61 | RRIRPRPPRLPRPRPRPKIVPRP | 0.026
62 | RRIRPRPPRLPRPRPRPKKIPRP | 0.0064
63 | RRIRPRPPRLPRPRPRPKKRPRP | 0.136
64 | RRIRPRPPRLPRPRPRPKLAPRP | 0.405
65 | RRIRPRPPRLPRPRPRPKLRPRP | 0.204
66 | RRIRPRPPRLPRPRPRPKMEPRP | -0.0537

Row | Sequence | shrunken log2 fold change
67 | RRIRPRPPRLPRPRPRPKMQPRP | 0.132
68 | RRIRPRPPRLPRPRPRPKMYPRP | -0.938
69 | RRIRPRPPRLPRPRPRPKNNPRP | -0.475
70 | RRIRPRPPRLPRPRPRPKNQPRP | -0.108
71 | RRIRPRPPRLPRPRPRPKQCPRP | 0.147
72 | RRIRPRPPRLPRPRPRPKQFPRP | -0.313
73 | RRIRPRPPRLPRPRPRPKQMPRP | 0.268
74 | RRIRPRPPRLPRPRPRPKSLPRP | -0.015
75 | RRIRPRPPRLPRPRPRPKSPPRP | -0.12
76 | RRIRPRPPRLPRPRPRPKSTPRP | -0.244
77 | RRIRPRPPRLPRPRPRPKTDPRP | -0.0446
78 | RRIRPRPPRLPRPRPRPKVMPRP | 0.294
79 | RRIRPRPPRLPRPRPRPKVRPRP | 0.161
80 | RRIRPRPPRLPRPRPRPKWFPRP | 0.0432
81 | RRIRPRPPRLPRPRPRPKYRPRP | 2.73
82 | RRIRPRPPRLPRPRPRPKYYPRP | -0.783
83 | RRIRPRPPRLPRPRPRPLCIPRP | -0.403
84 | RRIRPRPPRLPRPRPRPLCLPRP | -0.294
85 | RRIRPRPPRLPRPRPRPLCWPRP | 0.266
86 | RRIRPRPPRLPRPRPRPLEDPRP | 0.492
87 | RRIRPRPPRLPRPRPRPLFEPRP | 0.163
88 | RRIRPRPPRLPRPRPRPLGLPRP | -0.124

Row | Sequence | shrunken log2 fold change
89 | RRIRPRPPRLPRPRPRPLIGPRP | 0.009
90 | RRIRPRPPRLPRPRPRPLIQPRP | -0.0119
91 | RRIRPRPPRLPRPRPRPLIVPRP | -0.406
92 | RRIRPRPPRLPRPRPRPLIYPRP | -0.457
93 | RRIRPRPPRLPRPRPRPLKDPRP | -0.115
94 | RRIRPRPPRLPRPRPRPLLAPRP | 1.42
95 | RRIRPRPPRLPRPRPRPLLQPRP | 0.16
96 | RRIRPRPPRLPRPRPRPLNPPRP | -0.131
97 | RRIRPRPPRLPRPRPRPLPLPRP | -0.128
98 | RRIRPRPPRLPRPRPRPLRFPRP | 0.431
99 | RRIRPRPPRLPRPRPRPLRGPRP | 0.792
100 | RRIRPRPPRLPRPRPRPLRVPRP | 0.615
101 | RRIRPRPPRLPRPRPRPLSVPRP | -0.121
102 | RRIRPRPPRLPRPRPRPLTSPRP | -0.125
103 | RRIRPRPPRLPRPRPRPLVEPRP | 0.846
104 | RRIRPRPPRLPRPRPRPLWSPRP | -0.0489
105 | RRIRPRPPRLPRPRPRPMACPRP | -0.161
106 | RRIRPRPPRLPRPRPRPMAGPRP | -0.13
107 | RRIRPRPPRLPRPRPRPMAYPRP | -0.126
108 | RRIRPRPPRLPRPRPRPMCFPRP | -0.405
109 | RRIRPRPPRLPRPRPRPMDTPRP | -0.276
